Test: soluble on expression in E. coli; label from the status in PepcDB or PDB records

Sequence	soluble on expression in E. coli
VAEKPYLKDPEVAAGYHRVAKRELPEPKIMEVPQRFAAYVRHEGYNRSIRNAWLILKAWASSENRDFSVQYGLHHSNPAWVELDKCRYVACMAIDKPLKVRGVVNQMTIPGGLHAVFRLTGVYGELLPQLSMVLEKWLPNSGFKQRSTPAYVHYHKNHFLSHDEAFELDFYLPISFF	not soluble
VAKQRPDGIRAYEDPAGGWGALKALAVALKDQQLVVEGIPTLLKQNQPEGFDCPGCAWPDPKHTSAFEFCENGAKAVTWESTPKRVGPDFFAQHTVTSLWECSDYWLEDQGRLTHPMRYDAQTDKYEPVDWQVAFDDIAAKLDALDDPNQLELYTSGRASNEAAFLFQLFGRQFGTNNFPDCSNMCHEPTSVGLPRSIGIGKGTVTLDDFDKAELIISMGHNPGTNHPRMMTPLRNASRRGVKIIVLNPLKERALERFEAPQAPLEMATTSSTPIASCYFQVKVGGDAAALKGICKALVAADKVARAADLAPLLDHTFIVGHTAGFDALVDDLEGCSWSAIERASGLPRADMERIAADYAASNATIVCYGMGITQHVTGTANVQQIANLLLLKGNIGKPGAGICPLRGHSNVQGDRTVGITERPSEAFLDRLRDVFGFEPPRAFGHSVVDSIAAMRDGRAKAVICLGGNLAMAASDPQACFKGFRRLDLAVHLATKLNRTHLLTSKTTYLFPVLGRTDSDIQASGRQALTVEDSMSMVHASRGFLTPPSDQVRSEVAILAGIAKATLRSKSRVDWDALAGNYDLIRDAIEEVFPDFEAYNDRIRKPGGFQLPNSAAMRIWNTPTGKANFAIFAGLEEDETSTDRDVLRMTSLRAHDQYNTTIYGLNDRYRGVFGRRDVLFLNPKDLARLGFAEGDVVDVATALDYARPDRVVQALTLVSYNLPDGCCASYYPEIQPLVALEFRDPECLTPSYKSIPVKVTAARAPLAADRAVGRDGIVGREPGVETATGPSPVSLID	soluble
VELKVKRFPISRYQANNEASDDLIKGAFVGLTNVTFSFAGNIVRVVDTGMDILYNLQPIDEFANSITNVSKTVYKTLKKN	not soluble
VFQSILDEIDVGLHVVDEHGNTIVYNNKMMQIEDMEKHDVLNKNLMDVFMFSKQQDSTLVQALQEGKTIKNVKQSYFNNKGQEITTINHTYPIVQDGKIRGAVEIAKDVT	not soluble
VHNAGRMVVMKSRPLGEAEAVLDPSSATVDDFSISRGGDTIAYVKMGPTSPPDIYIYRDDNEYRLTDHNAWFAESRSLAEPVRLQVQSPLGGSIDAWILLPPDAGECSGCLPWILYIHGGPKTSYGYAFIHEFQMLASQGFAVIYSNPRGSDGYSEEFADLRGRYGVDDYSELMKVVDEALSDFPQLDPQRGGVTGGSYGGYMTNVIVTKTRRFKAAVTQRSCSNWISFYGESDIGWYFAPELISAQEPWRDLEKYVDFSPLFSVENIETPLLIIHSTEDFRCPLSGAIQLFTALKLKGVETRLLVFPGENHNLSRSGTPKRRVARLRAIASWFKEHLG	not soluble
VKIFERFRKACDEFFKKKGEFFKLLKEGMNANLEKKKALCEKAESLKDSTEWKETAEILTKLQKEWKTIGPVSKKYS	not soluble
VKNSNGVREKDGKPFRVELYYAGSDTVRRDIAIEFSSQMKKLGLDFPTIASTWDEIETKLGDVSVVLGGGSAPYDLTIMAYEYLHTRTPSTGKWANPGDYGSEKLNALLDQARSEVDVEKRNNLWRKIQAEYVNNPSALNLVNIDHVYVGKKNDWKKPELLLEPHIHGVTWGPWWRISEWTK	not soluble
VKSYKSGASAIDVIVTTPDIARINAIAAMKKGSALTTEETMQVPAAGWPVMIFSHGITSYKETVLAISGTLASQGIATISIDHPYHGARGIDFNADGVYEISATSSLSDSDPAYVNANVTSYMNLASLLTARDNVRQSEVDLLALRLSLNSVNLAGQLDATKVSFLGHSLGAITGIPVMALANSGI	not soluble
VLAGIDALESSGFAAVAGKRIALVTNRSGVDRLGRRTIDLLAHAPGARLVAIFAPEHGLGTDVDAPFGDAIDADTNVVVHSLYGSRRRIAPEALSNVDVLVFDIQDAGVRFFTYLATLGYVLEAAAAAHVPVVVLDRPNPLGGDVVGGPVSDADIGSFTNYYPLPLAPGMTIGELAKLFDDRLRIGADLVVVPMENYRRWMRYGDTGLGGLPPSPNLRDAAALSLYPDIGLVEGADVSVGRGTATPFGVLGAPWIDGRALADDLRAMHLSATFTPARFVPTEGPYRGALCEGVRIERLPGPVRPGRIGLAVALALHRRYPDRFRIDAIRASVGSRAVADMLADGRPLDEIEQVVDTQNAAFSRERAAYLLY	not soluble
VLGDKEWVYLPGLKESFKARIDTGATTSSISAVDIVPFERGGQDWVKFRIEHDNIRSEELSLPVERWVRIRQSSAEEAQRRAVVVAWIQIGDLKEQTEFTLTDRTHLTYPLLLGRSFFKDVAVVDVSRHYIQPKHPSPKK	not soluble
VLKLDRQTQIWNRASLESGGATPAAGDIALASLLLAHGLAMNGGVAHAIESLSQAEIAAAIDGFNYFGLTDASHVFEQRPDDSEDVEERLNMMYRTAVPNDRVLAHAFRVKLVSTPSAFAPIDHGAHV	not soluble
VLLHSKEVAYIAGLMAEELGLDAKLARRAGLLHDIGKAISHELGGSHTDIGVELARKYGEPDAVINAIRAHHEEEPVRYPEVALVCAADALSAA	not soluble
VLSAIGIVPSAPVLVPELAGAAAAELADLGAAVIAAASLLPKSWIAVGTGRADDVVRPTDVGTFAGFGADVRVGLAPQDGDGVAVPVELPLCALLTAWVRGQARPEARAQVHVYASDHGSDAAVARGRQLRADIDREPDPIGVLVVADGLNTLTPRAPGGYDPDGAGMQRALDDALASGDLAVLTRLPAQVLGRVAFQVLAGLAEPGPRSAKEFYRGAPHGVGYFAGVWQP	not soluble
VQERIKACFTESIQTQIAAAEALPDAISRAAMTLVQSLLNGNKILCCGNGTSAANAQHFAASMINRFETERPSLPAIALNTDNVVLTAIANDRLHDEVYAKQVRALGHAGDVLLAISTRGNSRDIVKAVEAAVTRDMTIVALTGYDGGELAGLLGPQDVEIRIPSHRSARIQEMHMLTVNCLCDLIDNTLFPHQDD	soluble
VQLLESGPGLVKPAQTLSLSCAVSGGSIRSGGYYWSWIRQHPGKGLEWIGYIYHSGNTYYNPSLKSRIAMSVDTSENKFSLRLNSVTAADTAVYYCARLDGYTLDIWGQGTLVTVSSSTKGPSVFPLAPSSKSTSGGTAALGCLVKDYFPEPVTVSWNSGALTSGVHTFPAVLQSSGLYSLSSVVTVPSSSLGTQTYICNVNHKPSNTKVDKRVEP	soluble
VREILSIHVGQCGNQIADSFWRLALREHGLTEAGTLKEGSNAAANSNMEVFFHKVRDGKYVPRAVLVDLEPGVIARIEGGDMSQLFDESSIVRKIPGAANNWARGYNVEGEKVIDQIMNVIDSAVEKTKGLQGFLMTHSIGGGSGSGLGSLILERLRQAYPKKRIFTFSVVPSPLISDSAVEPYNAILTLQRILDNADGAVLLDNEALFRIAKAKLNRSPNYMDLNNIIALIVSSVTASLRFPGKLNTDLSEFVTNLVPFPGNHFLTASFAPMRGAGQEGQVRTNFPDLARETFAQDNFTAAIDWQQGVYLAASALFRGDVKAKDVDENMATIRKSLNYASYMPASGGLKLGYAETAPEGFASSGLALVNHTGIAAVFERLIAQFDIMFDNHAYTHWYENAGVSRDMMAKARNQIATLAQSYRDAS	soluble
VRGLLRVVGVRIEPGDHMLAIRDEIAGAIALGHSQGAVEKEDRDRLLGALDLSERTVEEIMRHRSQIEMIDADKPSAEVIAQVLASPHTRIPLYRGDHENILGIIHAKDLLREVSRLMRTGSTGALDELDILAVAMKPYFVPETTPLDEQMRQFLKRRTHFALVVDEYGALKGLITLEDIIEEIVGEINDEFDIAQEMTLKRADTGDYLVDGAMTI	not soluble
VRMVGLTIETRPDWAFERQIDRMLAFGTTRVELGVQTIFNFIHERVGRGHGVEEIIKATQLLRDAGLKINYHIMPGLPGSNFERDLYVFKTIFEDPRFRPDMLKIYPTLVTRDAPLYAWYKAGLYKPYTTEEAVELLVEAYKIFPKWVRVMRIQRDIPSHLIVAGVKHSNLGQLVFEELVRRGIRPREI	not soluble

Reference: the DeepSol protein solubility set
